Consider 11 molecules from patent US20260167699A1 (Chugai, published 2026).

In the test the target is T1, FcγRIIIa (human, UniProt P08637 17-208).
T1 construct: extracellular domain; also called 3a; FcγRIIIa extracellular domain
The test is described as follows: SPR (Biacore).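 Further: antibody variants captured on an SPR sensor chip, with FcγRIIIa passed over as analyte in HBS-EP+ buffer at 25 °C.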 For orientation: In SPR one partner is held on a chip, and binding of the other changes the refractive index at the surface.

T1 sequence (P08637 other isoform, or with tags, fused parts or gaps): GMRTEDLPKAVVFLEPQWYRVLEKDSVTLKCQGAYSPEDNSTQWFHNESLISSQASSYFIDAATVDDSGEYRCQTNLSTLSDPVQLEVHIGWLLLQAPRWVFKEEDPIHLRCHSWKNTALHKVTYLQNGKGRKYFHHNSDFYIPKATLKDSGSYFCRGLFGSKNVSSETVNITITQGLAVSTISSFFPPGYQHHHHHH
Procedure: The antibody of interest was analyzed for its interaction with FcγR using a BiaCore™ T100, BiaCore™ A100, or BiaCore™ 4000 surface plasmon resonance system (GE Healthcare Japan Corp.). The running buffer used was HBS-EP+ (GE Healthcare Japan Corp.). The assay temperature was set to 25° C. The sensor chips used were: a chip prepared by immobilizing antigenic peptides onto Series S Sensor Chip CM5 (GE Healthcare Japan Corp.) by the amine coupling method; a chip prepared by immobilizing antigenic peptides biotinylated in advance onto Series S Sensor Chip SA (certified) (GE Healthcare Japan Corp.) through their interaction; a chip prepared by immobilizing protein L (ACTIGEN, BioVision, Inc.) onto Series S Sensor Chip CM5 (GE Healthcare Japan Corp.); and a chip prepared by immobilizing protein A/G (Thermo Fisher Scientific K.K.) onto Series S Sensor Chip CM5 (GE Healthcare Japan Corp.). The antibody of interest was captured onto any of these chips and allowed to interact with FcγR diluted with a running buffer. The antibody captured on the chip was washed off through the reaction of 10 mM glycine-HCl (pH 1.5) to regenerate the chip, which was repetitively used.

B1: GpH7-A5/GpH7-B3 variant P271_14T/GpL16-k0 (antibody, human IgG1, kappa)
heavy 1: not shown
heavy 2: not shown
light: DIVMTQSPLSLPVTPGEPASISCQASESLVHSNRNTYLHWYLQKPGQSPQLLIYKVSNRFSGVPDRFSGSGSGTDFTLKISRVEAEDVGVYYCSQNTHVPPTFGQGTKVEIERTVAAPSVFIFPPSDEQLKSGTASVVCLLNNFYPREAKVQWKVDNALQSGNSQESVTEQDSKDSTYSLSSTLTLSKADYEKHKVYACEVTHQGLSSPVTKSFNRGEC
notes: copies: 1 + 1 + 2
For the molecule B1, the “He/Con 3a” value is 59.2 % of GpH7-A5/GpH7-B3/GpL16-k0.

B2: GpH7-A5/GpH7-B3 variant P238_15Y/GpL16-k0 (antibody, human IgG1, kappa)
heavy 1: not shown
heavy 2: not shown
light: DIVMTQSPLSLPVTPGEPASISCQASESLVHSNRNTYLHWYLQKPGQSPQLLIYKVSNRFSGVPDRFSGSGSGTDFTLKISRVEAEDVGVYYCSQNTHVPPTFGQGTKVEIERTVAAPSVFIFPPSDEQLKSGTASVVCLLNNFYPREAKVQWKVDNALQSGNSQESVTEQDSKDSTYSLSSTLTLSKADYEKHKVYACEVTHQGLSSPVTKSFNRGEC
notes: copies: 1 + 1 + 2
Take B2: the “He/Con 3a” value was 61 % of GpH7-A5/GpH7-B3/GpL16-k0.

B3: GpH7-A5/GpH7-B3 variant P238_08L/GpL16-k0 (antibody, human IgG1, kappa)
heavy 1: not shown
heavy 2: not shown
light: DIVMTQSPLSLPVTPGEPASISCQASESLVHSNRNTYLHWYLQKPGQSPQLLIYKVSNRFSGVPDRFSGSGSGTDFTLKISRVEAEDVGVYYCSQNTHVPPTFGQGTKVEIERTVAAPSVFIFPPSDEQLKSGTASVVCLLNNFYPREAKVQWKVDNALQSGNSQESVTEQDSKDSTYSLSSTLTLSKADYEKHKVYACEVTHQGLSSPVTKSFNRGEC
notes: copies: 1 + 1 + 2
Consider B3, for which the “He/Con 3a” value is 71.3 % of GpH7-A5/GpH7-B3/GpL16-k0.

B4: GpH7-A5/GpH7-B3 variant P271_11K/GpL16-k0 (antibody, human IgG1, kappa)
heavy 1: not shown
heavy 2: not shown
light: DIVMTQSPLSLPVTPGEPASISCQASESLVHSNRNTYLHWYLQKPGQSPQLLIYKVSNRFSGVPDRFSGSGSGTDFTLKISRVEAEDVGVYYCSQNTHVPPTFGQGTKVEIERTVAAPSVFIFPPSDEQLKSGTASVVCLLNNFYPREAKVQWKVDNALQSGNSQESVTEQDSKDSTYSLSSTLTLSKADYEKHKVYACEVTHQGLSSPVTKSFNRGEC
notes: copies: 1 + 1 + 2
Regarding B4, the “He/Con 3a” value was 92.5 % of GpH7-A5/GpH7-B3/GpL16-k0.

B5: GpH7-A5/GpH7-B3 variant N325_13S/GpL16-k0 (antibody, human IgG1, kappa)
heavy 1: not shown
heavy 2: not shown
light: DIVMTQSPLSLPVTPGEPASISCQASESLVHSNRNTYLHWYLQKPGQSPQLLIYKVSNRFSGVPDRFSGSGSGTDFTLKISRVEAEDVGVYYCSQNTHVPPTFGQGTKVEIERTVAAPSVFIFPPSDEQLKSGTASVVCLLNNFYPREAKVQWKVDNALQSGNSQESVTEQDSKDSTYSLSSTLTLSKADYEKHKVYACEVTHQGLSSPVTKSFNRGEC
notes: copies: 1 + 1 + 2
Consider B5, for which the “He/Con 3a” value was 71.9 % of GpH7-A5/GpH7-B3/GpL16-k0.

B6: GpH7-A5/GpH7-B3 variant P271_02A/GpL16-k0 (antibody, human IgG1, kappa)
heavy 1: not shown
heavy 2: not shown
light: DIVMTQSPLSLPVTPGEPASISCQASESLVHSNRNTYLHWYLQKPGQSPQLLIYKVSNRFSGVPDRFSGSGSGTDFTLKISRVEAEDVGVYYCSQNTHVPPTFGQGTKVEIERTVAAPSVFIFPPSDEQLKSGTASVVCLLNNFYPREAKVQWKVDNALQSGNSQESVTEQDSKDSTYSLSSTLTLSKADYEKHKVYACEVTHQGLSSPVTKSFNRGEC
notes: copies: 1 + 1 + 2
In the case of B6, the “He/Con 3a” value was 83.7 % of GpH7-A5/GpH7-B3/GpL16-k0.

B7: GpH7-A5/GpH7-B3 variant P271_06M/GpL16-k0 (antibody, human IgG1, kappa)
heavy 1: not shown
heavy 2: not shown
light: DIVMTQSPLSLPVTPGEPASISCQASESLVHSNRNTYLHWYLQKPGQSPQLLIYKVSNRFSGVPDRFSGSGSGTDFTLKISRVEAEDVGVYYCSQNTHVPPTFGQGTKVEIERTVAAPSVFIFPPSDEQLKSGTASVVCLLNNFYPREAKVQWKVDNALQSGNSQESVTEQDSKDSTYSLSSTLTLSKADYEKHKVYACEVTHQGLSSPVTKSFNRGEC
notes: copies: 1 + 1 + 2
Consider B7, for which the “He/Con 3a” value was 74 % of GpH7-A5/GpH7-B3/GpL16-k0.

B8: GpH7-A5/GpH7-B3 variant P271_12R/GpL16-k0 (antibody, human IgG1, kappa)
heavy 1: not shown
heavy 2: not shown
light: DIVMTQSPLSLPVTPGEPASISCQASESLVHSNRNTYLHWYLQKPGQSPQLLIYKVSNRFSGVPDRFSGSGSGTDFTLKISRVEAEDVGVYYCSQNTHVPPTFGQGTKVEIERTVAAPSVFIFPPSDEQLKSGTASVVCLLNNFYPREAKVQWKVDNALQSGNSQESVTEQDSKDSTYSLSSTLTLSKADYEKHKVYACEVTHQGLSSPVTKSFNRGEC
notes: copies: 1 + 1 + 2
B8: the “He/Con 3a” value was 87.6 % of GpH7-A5/GpH7-B3/GpL16-k0.

B9: GpH7-A5/GpH7-B3 variant P271_08L/GpL16-k0 (antibody, human IgG1, kappa)
heavy 1: not shown
heavy 2: not shown
light: DIVMTQSPLSLPVTPGEPASISCQASESLVHSNRNTYLHWYLQKPGQSPQLLIYKVSNRFSGVPDRFSGSGSGTDFTLKISRVEAEDVGVYYCSQNTHVPPTFGQGTKVEIERTVAAPSVFIFPPSDEQLKSGTASVVCLLNNFYPREAKVQWKVDNALQSGNSQESVTEQDSKDSTYSLSSTLTLSKADYEKHKVYACEVTHQGLSSPVTKSFNRGEC
notes: copies: 1 + 1 + 2
For the molecule B9, the “He/Con 3a” value is 74.5 % of GpH7-A5/GpH7-B3/GpL16-k0.

B10: GpH7-A5/GpH7-B3 variant P271_04F/GpL16-k0 (antibody, human IgG1, kappa)
heavy 1: not shown
heavy 2: not shown
light: DIVMTQSPLSLPVTPGEPASISCQASESLVHSNRNTYLHWYLQKPGQSPQLLIYKVSNRFSGVPDRFSGSGSGTDFTLKISRVEAEDVGVYYCSQNTHVPPTFGQGTKVEIERTVAAPSVFIFPPSDEQLKSGTASVVCLLNNFYPREAKVQWKVDNALQSGNSQESVTEQDSKDSTYSLSSTLTLSKADYEKHKVYACEVTHQGLSSPVTKSFNRGEC
notes: copies: 1 + 1 + 2
In the case of B10, the “He/Con 3a” value was 65.6 % of GpH7-A5/GpH7-B3/GpL16-k0.

B11: GpH7-A5/GpH7-B3 variant P271_07I/GpL16-k0 (antibody, human IgG1, kappa)
heavy 1: not shown
heavy 2: not shown
light: DIVMTQSPLSLPVTPGEPASISCQASESLVHSNRNTYLHWYLQKPGQSPQLLIYKVSNRFSGVPDRFSGSGSGTDFTLKISRVEAEDVGVYYCSQNTHVPPTFGQGTKVEIERTVAAPSVFIFPPSDEQLKSGTASVVCLLNNFYPREAKVQWKVDNALQSGNSQESVTEQDSKDSTYSLSSTLTLSKADYEKHKVYACEVTHQGLSSPVTKSFNRGEC
notes: copies: 1 + 1 + 2
In the case of B11, the “He/Con 3a” value is 80.2 % of GpH7-A5/GpH7-B3/GpL16-k0.
